Molecular target: T1, D2R(L123W:R132L), short isoform, fused to Rluc8 (human, UniProt P14416-2 1-414, L123W | R132L)
T1 sequence: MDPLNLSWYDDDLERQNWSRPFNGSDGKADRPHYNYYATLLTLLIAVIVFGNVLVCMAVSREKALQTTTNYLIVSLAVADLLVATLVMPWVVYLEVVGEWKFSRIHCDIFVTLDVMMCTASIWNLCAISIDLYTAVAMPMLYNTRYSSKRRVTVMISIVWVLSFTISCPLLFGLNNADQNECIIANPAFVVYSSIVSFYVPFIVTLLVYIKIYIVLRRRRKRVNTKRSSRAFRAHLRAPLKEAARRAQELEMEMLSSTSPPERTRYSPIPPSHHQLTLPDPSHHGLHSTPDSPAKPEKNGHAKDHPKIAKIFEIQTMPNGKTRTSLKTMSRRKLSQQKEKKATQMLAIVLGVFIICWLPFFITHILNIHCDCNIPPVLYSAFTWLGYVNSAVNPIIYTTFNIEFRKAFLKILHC
Experiment: FRET or BRET

- maximal DA-induced recruitment, % of D2R-WT: 132 % of D2R-WT
B1: bovine arrestin-2 fused to mVenus at its N-terminus (natural protein)
chain: MGDKGTRVFKKASPNGKLTVYLGKRDFVDHIDLVEPVDGVVLVDPEYLKERRVYVTLTCAFRYGREDLDVLGLTFRKDLFVANVQSFPPAPEDKKPLTRLQERLIKKLGEHAYPFTFEIPPNLPCSVTLQPGPEDTGKACGVDYEVKAFCAENLEEKIHKRNSVRLVIRKVQYAPERPGPQPTAETTRQFLMSDKPLHLEASLDKEIYYHGEPISVNVHVTNNTNKTVKKIKISVRQYADICLFNTAQYKCPVAMEEADDTVAPSSTFCKVYTLTPFLANNREKRGLALDGKLKHEDTNLASSTLLREGANREILGIIVSYKVKVKLVVSRGGLLGDLASSDVAVELPFTLMHPKPKEEPPHREVPEHETPVDTNLIELDTNDDDIVFEDFARQRLKGMKDDKEEEEDGTGSPRLNDR
